According to the nanobody polyreactivity screen of Harvey et al. (2022):

Test: yeast display, Sf9 membrane polyspecificity reagent, FACS + sequencing; frameworks hold sequencing errors
Outline: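 In a synthetic yeast display library (Saccharomyces cerevisiae BJ5465), nanobody expression was induced with galactose for 36–48 hours. FACS gates were set low and high (top ~1%) using anti-HA fluorescence for expression and streptavidin fluorescence for binding of the Sf9 membrane reagent. Each polyreactivity label is drawn from the gate of origin.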

| Sequence | polyreactivity (PSR sort gate) |
| --- | --- |
| QVQLQERGGGLVQAGGSLRQSCAAIGYIFPYYSMGWYRQATGKERGLVACIAAGTTTNYADSVKGRFTISRDNAINTVYLQMNSLKPEDAAVYYCAALNAFKTGHWYWGQGTQVTVSS | low polyreactivity |
| QVQLQESAGGLEQAGGSLRLSCAASAYISDIGTKGWYRQAPRKEREFVATIVVGSTTNYADSVKGRFTISRDNAKNTVYLQPESGRYRGVFLRGWLLPVGKFTYWGQGTQETVSS | low polyreactivity |
| QVQLQESAGGLVQAGGSLRLRCSASGYISCDASMGSYRQAPGKERELAASITKGSSTNYADSVKGRFTIRDNAKNTVYLQMNSLKPEDTAVCYCAVTYPYWGDYTYWGQGTQVTVSS | low polyreactivity |
| QVQLQESAGGRQPAPELRGERLYFWLLLMGWYRQAPGEERELVAGINDGASTNYADSVKGRFTISRDNARNTVYLKMNSLKPGDTAVYYCAVWQPVLIWFYYWGQGTQVTVSS | high polyreactivity |
| QVQLQESCGGLVQEAGSLRLSCAASGNISPPADMGWYRQAPGKQRELVASIGTGGTTNYADSEKGRFTISRDNAKNTVYLQMNSLKPEDSAVYYCNVDIGVYAYESDYWGQGTQVTVSS | low polyreactivity |
| QVQLQESGAALVQAGGSLRLSCAASGNIFVDAYMGWYRQAPGKERELVATIAPADSVKGRFTISRDNAKNTVYLQMNRLKPEDTAVYYCAAFTGYSSVFGFWGQGIQVTVSS | high polyreactivity |
| QVQLQESGAGLVKAGGSLRLSCAASGNISNHNDMGWYRQAPGKEREFVAGITAGGITNYADSVKRRFTISRDNAKNSVYLQMKSLKPEDTAVYYCAAYPDYDKSYGYWGQGTQATVSS | low polyreactivity |
| QVQLQESGAGLVQAGGSLRLICAASGNIFRGDYVGWYHQAPGKEREFVASITGGGNTNFADSVKGRYSISRDNAKKTVYLKMNSLKPEDTAVYYCAVFDAWLARLIFWGQGSQVTVSS | high polyreactivity |
| QVQLQESGAGLVQAGVSLRLSCAASGYISTFSSEMGWYRQAPGKDRELVASIAPGCTTSYADSVKGRFTISRDKAKNTVFLQMNSLKPEDTAVYYCAVDYTVPASFGYWGQGTQVTVSS | high polyreactivity |
| QVQLQESGGALVQAGGSLRLSCAASGNIYDADIMGWYRQAPGKERELVTSITDGGSTNYADSVKGRFTISRDNAKNTVYLQMNSLKPQDTAVYYCAAIAYPDIPTSFDYNSDYSYWGQGTQVTVSS | low polyreactivity |
| QVQLQESGGALVQAGGSLRLSCAASGTISDRAGMGWYRQAPAKNANVATIDRGTNTNYADSVKGRFTISRDNAKNTVYLQMNSLKPEDTAVYNCAADGRYYIYLDYWGQGTQVTVSS | low polyreactivity |
| QVQLQESGGCLVQAGGSLRKSCAASGNIFDADIMGWYRQAPGKERELVASITDGRRTNYADSVKGRYTISRDSENNTVYLQLNSLKAEDTAVYYCAAIAYPVVPTYFDYDSDFFHWGQGTQVTVSS | high polyreactivity |
| QVQLQESGGDLEQAGGSLRLSCTASGTISDVRVMGWSRQAPGKERELVATISYVTITYYADSVKGRFTISRDSEKHRVSADDEPETGRYRGVLFRYYWGLGTQVTVSS | low polyreactivity |
| QVQLQESGGGLEQAGGSLRLSCAASGYISDIGPMGWSRQAPGKEREFVATIVVGSTTNYADSVKGRFTISRDNAKNTVYLQPESGRFRGVLLRGWLLAVGKFTYWGQGTQETVSS | low polyreactivity |
| QVQLQESGGGLEQAGGSLRLSCAASGYISDIGTMGWYRQAPAKEREFVATIVVGSTTNYADSVKGRFTISRDNAKNTVYLQPESGRYRGVLLSGWLLAVGKFTYWGQGTQETVSS | low polyreactivity |
| QVQLQESGGGLLLAGGSLRLSCSASGNISVYGSMGWYRQAPGKEREFVATIDPGTNTNYADSVKDRFTISRDNAKNTVYLQMNSLKPEDTAVYYCAVEAGSDWPYRYWGQGTQVTVSS | low polyreactivity |
| QVQLQESGGGLMQAGGNLRLSCAASGYISTNDDMDWYRQAPGKERELVARIDDGAITNYADSVKGRFTISRDNAKKTVYLQMNSLKPEDTAVYYFAVYSGDDYYHDYWGQGTQVTVSS | low polyreactivity |
| QVQLQESGGGLMQAGGSQRLSCAASGSISYYSDMGWYRQSPGKEREFVAGIGYGTTTNYADSVKGRFTTSRDNAKNTVYLQMISMKPEDTAVYYCAAYQGNGYEFYYWGQGTQVTVRS | low polyreactivity |
| QVQLQESGGGLMQAGGSQRLSCAASGSITYYSDMGCYRQAPGKELEFVAAIGYGTTTNYADSVKGRFTTSRDNAKYTVYLQMISMKPEDTAVYYCAAYQGKGYEFYYWGQGTQVTVRS | low polyreactivity |
| QVQLQESGGGLVKAGGSLRLSCAASGSIFYWPWMGWYRQAPGREREFVATITTGSNTYYADSMKGHLTISRDNARNTVYLQMNSLKPEDTAVYYCAVVGDGELEHRYWGQGTQVTVSS | high polyreactivity |
| QVQLQESGGGLVLAGGSLRLSCSASGNISVYGSMGWYRQAPGKEREFVATIDPGTNTNYADSVKDRFTISRDNAKNTVYLQMNSLKPEDTAVYYCAVEAGSDWLYRYWGQGTKVTVSS | low polyreactivity |
| QVQLQESGGGLVNAGGSLRLSCAASGTISFINMMGWYRQAPGRERELVASINFGANTNYADSVKGRFTISRDNAKNTVYLQMNSLKPEDTAVYYCAVYDFDAYTLYYWGQGTLVTVSS | high polyreactivity |

| Sequence | polyreactivity (PSR sort gate) |
| --- | --- |
| QVQLQESGGGLVQACGSQRLSCAASGSISEGQDMGWYRRAPGKEREFVAGIAPGATTYYADSVKGRFTISRDNAKNTVYLQMNSLKPEDTAVYYCAARSVTETDHDYWGQVTQVTVSS | low polyreactivity |
| QVQLQESGGGLVQADGSLRLSCAASGSIFGYYYMGWYRQAPGKDRDLVATINICGITNYADSVNGRFTISRDNAKYTVYLQMNSLKPDDTAVYYCAADEFDQRDLGYWGQGTQVSVSS | low polyreactivity |
| QVQLQESGGGLVQAGGCLSCTASGTIFGQGDMGWYRQAPGKERELVATINVGASTYYADSVKGRFTISRDKAKNTVYLQKNSLKPDDTAVYYCAVFTDITTYFGYWGQGTQVTVSS | low polyreactivity |
| QVQLQESGGGLVQAGGDLRLSCAASGNIFRDYIMGWNPQAPGKEREFVAGIDRGANTNYADSVKGRFTISRDNAKNTVYLQMNSLKPEDTAVYYCAVHTAIVPDFIYWGQGTQVTVSS | low polyreactivity |
| QVQLQESGGGLVQAGGILRRSCAACGNIFPSAVMGWYRQALGKEREFVATINSGSNTYYADSVKGRFTISRDNAKNTVYLQMNSLKLEDTAVYYCAAYFKLPAWHTYWGQGTQVTVSS | low polyreactivity |
| QVQLQESGGGLVQAGGSLCLSCAASGTIFFDGDMGWNRQAPGKEREFVAAINPGGSAYYADSVKGRLPLAAITHTVYMQMYSLKPEDTAVYYCEAILFDVYGYYYWGQGTNVTVSS | low polyreactivity |
| QVQLQESGGGLVQAGGSLLICAASGTISWVDEMGWYRQAPGNERELVAGIAGGGNTNYADSVKGRYTISRDNAKNTVYLEMNSLDTAVYYCAVVGFGRGTHIYWGQGTQVTVSS | high polyreactivity |
| QVQLQESGGGLVQAGGSLLLSCAASGSSYDDTYMGWYRQAPGKERELVATIDSGSTTNYADSVKGRNTISRDNAKYTLYLQMNSLKPEDTAVYYCAAADSHIDYFDYWGQGTQVTVSS | low polyreactivity |
| QVQLQESGGGLVQAGGSLLSCAASGTISSYREMGWYRQAPGKELELVAGIGVGTITYYADSVKGRFTISRDNAKNTVYLQMNSLKPEDTAVYYCAAHIDGNDSHAYWGQGTQVTVSS | low polyreactivity |
| QVQLQESGGGLVQAGGSLLSCAASGTISWVDEMGWYRQAPGNERELVAGIAGGGNTNYADSVKGRYTISRDNAKNTVYLQMNSLDTAVYYCAVVGFGRGTHIYWGQGTQVTVSS | high polyreactivity |
| QVQLQESGGGLVQAGGSLRLGCAASGNISDAGYMGWYRQAPGKEREFVAAIAAGSNTNYADSVKGRFTISRDNAKNTVYLQMNSLKPEDTAVFYCAVGSYARVQYEYWGQGTQVTVNS | low polyreactivity |
| QVQLQESGGGLVQAGGSLRLRCAASGYISAGRQMGWYRQGPGKEREFVATINGGATTNYADSVKGRFTISRDNAKNSVYLQMNSLKPEDTAVYYCAVRTYIYDIHRYWGQGTQVTVSS | high polyreactivity |
| QVQLQESGGGLVQAGGSLRLSCAASCTISQEDWMGSYRQAPGKEREFVAAIGLGSNTNYADSLKGRFTISRDNAKNTVYLQMNSLKPEDTAVYYCAVSVWQYSDHVYRGQGTQVTVSS | low polyreactivity |
| QVQLQESGGGLVQAGGSLRLSCAASCTISQEDWMGWYRQAPGKEREFVAAIGLGSNTNYAESLKGRFTISRDNAKKTVYLQLHSLKPEDTAVYYCAVSVWQYSDHVYGGQGTQVTVSS | low polyreactivity |
| QVQLQESGGGLVQAGGSLRLSCAASGNIFDADIMGWYRQAPGKERELVASITDGGSTNYADSVKGRFTISRDNAKNTLYLQLISLYPDDTGVYYCAAIAYPDIPTYFDYDSDYFYWGQGTQVTVSS | high polyreactivity |
| QVQLQESGGGLVQAGGSLRLSCAASGNIFPTVSMGWYRQAPGKEREFVVTIDPGSNTYYADSAKGRFTISRDNAKNTVYLQMNSPKPEDTAVYYCAVVFADWATYGYWGQGTQVTVSS | high polyreactivity |
| QVQLQESGGGLVQAGGSLRLSCAASGNISSYYRMGSYRQAPGKEREFVATIAVGGTTNYADSVKGRFTISRDNAKNTVYLQMNSLKPEDTAVCFCAANSTQYTWFDYWGQGTQVPVSS | low polyreactivity |
| QVQLQESGGGLVQAGGSLRLSCAASGNISVTGFMGWYRQAPGKERELVASIGIGGTTYYADSVKGRFSISRDNAKNTVYLQMNSLKPEDTAVYYCAARVIYYYGSGPYDYWGQGTQVTVSS | low polyreactivity |
| QVQLQESGGGLVQAGGSLRLSCAASGNIVDADIMGWYRQAPGKEREIVASITDGGSTNYADSLKGRFTISRDHAKNTVYQQMNRLLPEDTAVYYCAAIAYPDIPTYFDYDSDYFYWGQGTQETVSS | high polyreactivity |
| QVQLQESGGGLVQAGGSLRLSCAASGNIYDADIMGWYRQAPGKERELVTSITDGGSTNYADSVKGRFTISRDNAKNTVYLQMNSLKPEDTAVYYCAAIAYPDIPTSFDYNTDYSYWGQGTQVTVSS | low polyreactivity |
| QVQLQESGGGLVQAGGSLRLSCAASGSIFKVVDMGLYRQAPAKEREFVATIGEGGNTYYADSVKGRFTISRDNAKNTVYLQMNSLKPEDTAVYYCNVDIGVYAYESDYWGQGTQVTVSS | low polyreactivity |
| QVQLQESGGGLVQAGGSLRLSCAASGSIFQLHIMCWYRQAPGKERESVAAISYGTSTYYADSVKGRFTICRDNAKNTVYLQMNSPKTDDTAVYYCAALFLVSKHHHYWGEGTQVTVSS | low polyreactivity |
